{"source": "patent US20040253685A1", "key": {"[1]": {"target": "T1, wild type bovine endothelial nitric oxide synthase (eNOS) (bovine) (UniProt P29473)", "T1 sequence (looked up)": "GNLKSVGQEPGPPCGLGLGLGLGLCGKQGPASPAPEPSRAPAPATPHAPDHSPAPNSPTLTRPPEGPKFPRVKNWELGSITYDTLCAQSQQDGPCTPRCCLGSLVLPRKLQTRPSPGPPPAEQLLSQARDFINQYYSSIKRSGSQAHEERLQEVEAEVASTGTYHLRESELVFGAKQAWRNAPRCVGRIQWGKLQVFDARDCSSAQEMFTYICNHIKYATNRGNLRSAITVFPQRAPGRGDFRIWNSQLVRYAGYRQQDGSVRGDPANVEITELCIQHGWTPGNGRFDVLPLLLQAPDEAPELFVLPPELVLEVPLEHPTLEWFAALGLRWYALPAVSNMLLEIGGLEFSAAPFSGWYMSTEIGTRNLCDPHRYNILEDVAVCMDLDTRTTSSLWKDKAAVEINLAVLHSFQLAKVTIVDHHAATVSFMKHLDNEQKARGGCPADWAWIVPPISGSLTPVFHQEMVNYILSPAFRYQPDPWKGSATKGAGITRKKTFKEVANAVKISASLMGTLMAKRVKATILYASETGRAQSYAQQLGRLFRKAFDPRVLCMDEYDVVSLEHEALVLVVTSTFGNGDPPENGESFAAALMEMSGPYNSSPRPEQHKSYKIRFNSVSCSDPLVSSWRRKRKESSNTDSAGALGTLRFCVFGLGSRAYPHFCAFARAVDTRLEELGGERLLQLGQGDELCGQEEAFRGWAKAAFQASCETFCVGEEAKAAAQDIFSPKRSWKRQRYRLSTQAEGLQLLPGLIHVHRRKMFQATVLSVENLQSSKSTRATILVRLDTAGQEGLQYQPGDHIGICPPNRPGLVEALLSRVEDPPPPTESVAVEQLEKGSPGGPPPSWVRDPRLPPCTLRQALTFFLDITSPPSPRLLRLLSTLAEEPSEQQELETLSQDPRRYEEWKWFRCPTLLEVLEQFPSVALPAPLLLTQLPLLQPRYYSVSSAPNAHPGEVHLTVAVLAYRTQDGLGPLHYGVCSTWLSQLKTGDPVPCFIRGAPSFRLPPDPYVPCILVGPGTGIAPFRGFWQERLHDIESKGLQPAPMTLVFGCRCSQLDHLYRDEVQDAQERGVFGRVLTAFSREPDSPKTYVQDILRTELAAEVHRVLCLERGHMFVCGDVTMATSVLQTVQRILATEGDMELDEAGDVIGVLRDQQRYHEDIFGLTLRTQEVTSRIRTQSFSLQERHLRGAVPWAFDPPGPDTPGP", "test": "cell-based or functional assay"}, "[2]": {"target": "S1179D eNOS (bovine) (bovine) (UniProt P29473)", "test": "cell-based or functional assay"}}}
{"substance": "HA-tagged kinase inactive Akt (K179M) (enzyme)", "values": [{"measurement": "cGMP accumulation (assayed in COS cells)", "setting": "[1]", "result": 5.8, "unit": "pmol cGMP"}]}
{"substance": "HA-tagged wild-type Akt (protein kinase B) (enzyme)", "values": [{"measurement": "phosphorylation of eNOS in 32P-orthophosphate labeled COS cells", "setting": "[1]", "result": 2, "unit": "fold"}]}
{"substance": "calmodulin", "values": [{"measurement": "EC50 for CaM, NADPH-mediated cytochrome c reduction as a function of CaM concentration", "setting": "[2]", "result": 21, "unit": "nM"}, {"measurement": "EC50 for CaM, NOS activity (L-Citrulline) as a function of CaM concentration", "setting": "[2]", "result": 7, "unit": "nM"}, {"measurement": "EC50 for CaM, NADPH-mediated cytochrome c reduction as a function of CaM concentration", "setting": "[1]", "result": 13, "unit": "nM"}, {"measurement": "EC50 for CaM, NOS activity (L-Citrulline) as a function of CaM concentration", "setting": "[1]", "result": 8, "unit": "nM"}]}
{"substance": "constitutively active form of Akt (myr-Akt) (enzyme)", "values": [{"measurement": "cGMP accumulation (assayed in COS cells) (pmol cGMP/mg protein)", "setting": "[1]", "result": 11.6}]}
